Patent US20230416361A1 (MIROBIO, published 2023)

What was measured:
[1] = biological target: T1, monomeric soluble human CD200R extracellular domain (human, UniProt Q8TD46 29-265); assay: SPR, captured antibody, soluble monomeric receptor injected, single cycle kinetics, 37 C
T1 construct: extracellular domain; also called hCD200R; monomeric CD200R protein
T1 sequence (looked up): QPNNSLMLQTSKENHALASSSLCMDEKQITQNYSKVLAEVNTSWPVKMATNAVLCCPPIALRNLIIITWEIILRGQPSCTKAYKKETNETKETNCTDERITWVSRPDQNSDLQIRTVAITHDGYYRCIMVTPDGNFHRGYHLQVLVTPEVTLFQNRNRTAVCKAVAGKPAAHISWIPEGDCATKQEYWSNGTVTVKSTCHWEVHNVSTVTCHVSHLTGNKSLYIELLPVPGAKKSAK
Experimental: (§1) The binding affinity and kinetics of the CD200R antibodies of the present disclosure to human or cynomolgus CD200R were determined by surface plasmon resonance (SPR) using the Biacore T200 (GE Healthcare). Mouse antibody capture kit (GE Healthcare) was used to coat a Series S CM5 Sensor Chip (GE Healthcare) with polyclonal anti-mouse IgG.
(§2) Anti-CD200R antibody was captured onto the biosensor surface and a negative control antibody (clone Mopc21; Biolegend) captured in the reference channel. Various concentrations of monomeric soluble human CD200R extracellular domain, soluble cynomolgus macaque CD200R1 extracellular domain or soluble cynomolgus macaque CD200RLa (a highly homologous activating receptor) were injected over the immobilized antibodies in the buffer 10 mM Hepes, 150 mM NaCl, 0.005% v/v Surfactant P20, pH 7.4 (HBS-P) at 37° C., in a single cycle kinetics analysis. Association and dissociation rates were fitted using BiaEvaluation Software (GE Healthcare) after reference and blank subtractions, and dissociation constants were calculated (Table 2).

[2] = biological target: T2, soluble cynomolgus macaque CD200R1 extracellular domain (cynomolgus macaque, UniProt G7NZT0 29-266); assay: as above
T2 construct: extracellular domain; also called Cynomolgus CD200R
T2 sequence: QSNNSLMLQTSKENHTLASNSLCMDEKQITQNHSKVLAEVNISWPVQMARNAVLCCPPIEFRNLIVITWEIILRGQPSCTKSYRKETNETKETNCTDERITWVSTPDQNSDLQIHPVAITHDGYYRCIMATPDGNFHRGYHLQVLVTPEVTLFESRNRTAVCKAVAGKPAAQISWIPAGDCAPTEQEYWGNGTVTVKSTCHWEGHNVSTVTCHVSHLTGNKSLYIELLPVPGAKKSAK
Experimental: as §1, §2

[3] = biological target: T3, extracellular domain of cyno CD200R (SinoBiological 11232-C08H, Met1-Leu267) (cynomolgus, UniProt G7NZT0 25-268); assay: SPR (Biacore), antibody captured by anti-human Fc, CD200R extracellular domain injected, single cycle kinetics, 25 C
T3 construct: range 1-267; Bought protein
T3 sequence: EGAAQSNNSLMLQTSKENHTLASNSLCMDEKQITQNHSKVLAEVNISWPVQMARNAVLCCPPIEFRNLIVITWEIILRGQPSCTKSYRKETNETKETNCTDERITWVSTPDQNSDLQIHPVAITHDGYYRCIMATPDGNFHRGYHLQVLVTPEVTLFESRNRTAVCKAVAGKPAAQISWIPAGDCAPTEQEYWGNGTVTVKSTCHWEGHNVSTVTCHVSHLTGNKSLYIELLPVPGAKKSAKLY
Experimental: This example investigates in vitro CD200R binding of anti-CD200R antibodies by surface plasmon resonance. Surface plasmon resonance binding experiments with purified anti-CD200R antibody (expressed on a hIgG1 isotype with a P238D Fc mutation) were performed using the Biacore T200 and 8K+instruments. Anti-human Fc antibody (Life Technologies H10500) was amine-coupled to a C1 sensor chip using standard amine-coupling chemistry. Residual activated carboxyls were blocked with ethanolamine. Antibodies with a human Fc were then captured on these surfaces.
To assess the binding of hu2131_v20_D56S antibody and variants (antibody hu213l_Q1E and antibody hu2131_Q1E_M99G) to the extracellular domains of human CD200R (Met29-Leu243) and cyno CD200R (SinoBiological 11232-C08H, Metl-Leu267), 10-30 RUs of antibody were captured. CD200R proteins were diluted into running buffer (10 mM HEPES, 150 mM NaCl, 3 mM EDTA, 0.01% Polysorbate 20, pH 7.4 with 0.1 mg/mL BSA) (full-length antibody sequences are disclosed in Table 10). Five three-fold serial dilutions were performed for each CD200R, with highest concentration being 100 nM. Samples were injected using a single cycle kinetics scheme (Karlsson Anal Biochem et al 2006). Data were analyzed using Biacore Insight Evaluation Software and fit to a simple kinetic model, from which kon and koff were obtained to calculate KD using the relationship KD=koff/kon. Experiments were run at 25° C.

[4] = biological target: T4, human CD200RLa full length construct on HEK293T cells (human, UniProt Q6Q8B3 24-271); assay: flow cytometry on transiently transfected HEK293T cells
T4 construct: whole, on cells; also called CD200R1L
T4 sequence (looked up): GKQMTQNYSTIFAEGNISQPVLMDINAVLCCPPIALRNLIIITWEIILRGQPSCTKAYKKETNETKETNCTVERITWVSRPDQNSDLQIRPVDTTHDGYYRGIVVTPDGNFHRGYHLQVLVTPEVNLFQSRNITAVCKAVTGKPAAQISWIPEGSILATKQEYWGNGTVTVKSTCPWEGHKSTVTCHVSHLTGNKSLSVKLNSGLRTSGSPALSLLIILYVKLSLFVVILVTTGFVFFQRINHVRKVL
Experimental: (§3) The binding of CD200R antibodies to human and cyno CD200R and CD200RLa constructs was assessed by flow cytometry of transiently transfected cells. CD200RLa has a charged transmembrane (TM) that is not expected to express well in the absence of appropriate binding partners. Therefore, in addition to the full length CD200RLa constructs, chimeric constructs were used consisting of the CD200RLa extracellular domain fused to mouse CD80 transmembrane and intracellular tail to enable cell surface expression.
(§4) HEK293T cells were plated out at 1 million cells per well in a 6 well plate the day before transfection. The following day cells were transfected with CD200R constructs using 2.5 μg plasmid DNA (a pcDNA3.4 vector containing the CD200R construct sequence) and 10 μl Lipofectamine 2000 (mixed in 200 μl Optimem for 5 minutes then added dropwise to cells). 48 hours after transfection, cells were collected by vigorous pipetting in cold PBS and 50,000 cells pelleted per well in 96 well U bottom plates.
(§5) Cells were then washed and stained for 30 minutes with a secondary staining mix containing a live/dead marker (Near IR LD, Biolegend cat #423106) and APC anti-hIgG (clone QA19A42, Biolegend cat #366906) or AF647 anti-mIgG1 (clone RMG1-1, cat #406618). As a control, cells were separately stained with the commercial anti-CD200R clone OX108 directly labelled with AF647 (Biolegend cat #329308). Finally, cells were washed and resuspended in FACS buffer for acquisition on a FACS Celesta flow cytometer.

[5] = biological target: T5, cyno CD200RLa full length construct on cells (cynomolgus, UniProt A0A2K5W6R0 30-275); assay: as above
T5 construct: whole, on cells; also called cynomolgus CD200RLa expressed on cells
T5 sequence: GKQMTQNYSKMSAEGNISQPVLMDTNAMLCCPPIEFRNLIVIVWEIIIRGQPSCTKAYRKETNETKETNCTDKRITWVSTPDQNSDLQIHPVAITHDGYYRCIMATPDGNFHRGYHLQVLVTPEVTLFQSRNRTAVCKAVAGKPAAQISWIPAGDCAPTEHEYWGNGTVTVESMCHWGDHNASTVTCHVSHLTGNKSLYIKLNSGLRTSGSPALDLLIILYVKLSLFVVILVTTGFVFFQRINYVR
Experimental: as §3, §4, §5

[6] = biological target: T6, human CD200RLa extracellular domain fused to mouse CD80 transmembrane and intracellular tail, on HEK293T cells (human; mouse, UniProt Q6Q8B3 24-239; Q00609 247-306, limits assumed); assay: as above
T6 construct: extracellular domain;domain: transmembrane and intracellular tail; also called human CD200RLa chimeric construct
T6 sequence (looked up): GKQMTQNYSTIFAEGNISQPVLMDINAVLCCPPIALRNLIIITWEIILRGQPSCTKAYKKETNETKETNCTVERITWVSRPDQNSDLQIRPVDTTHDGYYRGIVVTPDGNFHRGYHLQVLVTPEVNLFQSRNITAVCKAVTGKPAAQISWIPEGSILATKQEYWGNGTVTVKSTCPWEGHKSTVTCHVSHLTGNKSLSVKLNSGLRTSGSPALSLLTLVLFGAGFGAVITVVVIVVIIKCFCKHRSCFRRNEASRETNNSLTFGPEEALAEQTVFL
Experimental: as §3, §4, §5

[7] = biological target: T1, monomeric soluble human CD200R …; assay: BLI (Octet), antibody on anti-human Fc probes, monomeric CD200R in solution, 25 C, 1:1 global fit
Experimental: Humanised variant antibodies combining the different heavy and light variable domains described in Example 6 were produced by transient transfection of HEK293 cells. All antibodies were expressed on a human IgGI isotype with a P238D Fc mutation. The unpurified supernatants were analysed by Protein A-HPLC to determine the antibody concentrations, as a measure of expression yield. […] Binding affinity of humanized variants to human CD200R was assessed by bio-layer interferometry on an Octet R4 instrument. Each antibody was captured directly onto anti-human Fc capture probes (Sartorius 18-5060) for 60 sec followed by baseline setting in assay buffer (DPBS, 0.01% Polysorbate-20). Association of monomeric CD200R protein to immobilised antibodies was measured in 4 different protein concentrations (300, 100, 30 and 10 nM in assay buffer) at 25° C., with an association time of 120s and dissociation of 120s in assay buffer only. A reference probe with no antibody immobilised was used for background subtraction. Kinetic rate constants and binding KDs were calculated using Octet Analysis Studio 12 software. Global curve fitting based on all 4 concentrations using a 1:1 model was performed, from which kon and koff were obtained to calculate KD using the relationship KD=koff/kon.

B1: anti-CD200R antibody clone 3.10.2 (mIgG1k isotype) (antibody, V domains shown)
VH: QVQLQQPGSELVRPGASVKLSCKASGYTFTSYWMHWVKQRPGQGLEWIGNIFPGSDTTNYDEKFKSKAIMTVDISSSTVYMHLSSLTSEDSAVYYCITYTGAYWGQGTLVTVSA
VL: DVQMIQSPSSLSASMGDIVTMTCQASQGTNINLHWFQQKPGKAPKLLISGGSNLEDGVPSRFSGSRYGTDFTLTISSLEDEDMATYFCLQFTYLPWTFGGGTKLDIKR
notes: Murine hybridoma antibody, IgG1 kappa
Work on B1 yielded a Kd [1] of 0.4 nM and a Kd [2] of 0.0015 nM.

B2: anti-CD200R antibody clone 7.12.2 (mIgG1k isotype) (antibody, V domains shown)
VH: QVQLQQPGSELVRPGASVKLSCKASGYTFTSYWMHWVKQRPGQGLEWIGNIYPGSGTTNYDEKFKSKATLTVDTSSSTAYMQISSLTSEDSAVYYCTTGTSTYWGQGTLVTVSA
VL: DVQMIQSPSSLSASLGDIVTMTCQASQGTSINLNWFQQKPGKAPKLLIYGAVNLEDGVPSRFSGSRYGTDFTLTVSSLEDEDMATYFCLQHTYLPWTFGGGTKLEIKR
notes: as for B1
B2 gave a Kd [1] of 2.9 nM and a Kd [2] of 0.708 nM.

B3: anti-CD200R antibody clone 2.2.7 (mIgG1k isotype) (antibody, V domains shown)
VH: QVQLKESGPGLVAPSQSLSITCTVSGFSLTSYGVHWVRQLPGKGLEWLGVIWAGGGTNYNSALMSRLSISKDNSKSQVFLKMNRLQTDDTAIYYCAREGLPRAMDYWGQGTSVTVSS
VL: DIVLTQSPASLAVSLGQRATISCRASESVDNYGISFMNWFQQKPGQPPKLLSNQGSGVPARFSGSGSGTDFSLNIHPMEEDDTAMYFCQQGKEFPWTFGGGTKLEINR
notes: as for B1
B3 showed a Kd [1] of 27.6 nM and a Kd [2] of 159 nM.

B4: Antibody hu2131_Q1E hIgG1k P238D (antibody)
heavy: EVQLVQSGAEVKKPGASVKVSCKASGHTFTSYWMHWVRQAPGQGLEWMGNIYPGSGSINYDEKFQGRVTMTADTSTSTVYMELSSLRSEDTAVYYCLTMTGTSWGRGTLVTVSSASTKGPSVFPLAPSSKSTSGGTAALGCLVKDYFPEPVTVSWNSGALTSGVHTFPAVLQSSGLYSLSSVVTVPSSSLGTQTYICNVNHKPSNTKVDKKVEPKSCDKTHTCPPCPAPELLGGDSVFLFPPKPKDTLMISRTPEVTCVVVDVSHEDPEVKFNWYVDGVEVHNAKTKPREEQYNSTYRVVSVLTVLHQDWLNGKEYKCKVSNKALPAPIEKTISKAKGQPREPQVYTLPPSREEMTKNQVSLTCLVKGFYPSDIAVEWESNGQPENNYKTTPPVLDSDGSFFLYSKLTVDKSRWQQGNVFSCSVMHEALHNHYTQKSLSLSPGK
light: DIQMTQSPSSLSVSVGDRVTITCQASQGTPINLHWFQQKPGKAPKLLISGASNLESGVPSRFSGSGSGTEFTFTISSLQPEDAATYYCLQFTYIPWTFGQGTKLEIKRTVAAPSVFIFPPSDEQLKSGTASVVCLLNNFYPREAKVQWKVDNALQSGNSQESVTEQDSKDSTYSLSSTLTLSKADYEKHKVYACEVTHQGLSSPVTKSFNRGEC
Work on B4 yielded a Kd [3] of no more than 0.0392 nM, a koff [3] of no more than 1e-05 s⁻¹ and a kon [3] of 255000 M⁻¹ s⁻¹.

B5: anti-CD200R antibody clone 26.1.2 (mIgG1k isotype) (antibody, V domains shown)
VH: EVQLQQSGPELVKPGASVKMSCKASGYTFTSYVMHWVKQKPGQGLEWIGYIHPYNDDIKHNEKFKDKATLTSAKSSSTVYMELSSLTSEDSAVYYCAREEYYGSRFAYWGQGTLVTVSA
VL: DIVLTQSPASLAVSLGQRATISCRASKSVRTSGYSYLHWYQQKPGQPPKLLIYLASNLESGVPARFSGSGSGTDFTLNIHPVEEEDAATYYCQYSGELPFTFGGGTKLEIKR
notes: as for B1
For B5, the Kd [1] was 0.7 nM and the Kd [2] was 60 nM.

B6: hu2131_v20 (antibody, human IgG1, V domains shown)
VH: QVQLVQSGAEVKKPGASVKVSCKASGHTFTSYWMHWVRQAPGQGLEWMGNIYPGSGSINYDEKFQGRVTMTADTSTSTVYMELSSLRSEDTAVYYCLTMTGTSWGRGTLVTVSS
VL: DIQMTQSPSSLSVSVGDRVTITCQASQGTPINLHWFQQKPGKAPKLLISGASNLEDGVPSRFSGSGSGTEFTFTISSLQPEDAATYYCLQFTYIPWTFGQGTKLEIK
B6: no binding (tested: 10 ug/ml) [4]; no binding (tested: 10 ug/ml) [5]; no binding (tested: 10 ug/ml) [6]. For the same binder, the Kd [7] was 0.00276 nM.
